Source: the RNAGym collection of RNA variant scans (doi:10.1073/pnas.2313332121)
Variants at the floor of the assay were thinned out.

B1: TPR 5TU (parent)
chain: GGAUCUUCUCGAUCUAACAAAAAAGACAAAUCUGCCACAAAGCUUGAGAGCAUCUUCGGAUGCAGAGGCGGCAGCCUUCGGUGGCGCGAUAGCGCCAACGUUCUCAACUAUGACACGCAAAACGCGUGCUCCGUUGAAUGGAGUUUAUCAUG

Variants of: B1
Experiment: polymerase ribozyme fitness, log enrichment relative to wild type (log ratio); higher = more active; in vitro selection for triplet polymerase activity
In short: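 In triplicate, a single round of in vitro selection was run on each mutant library, PCR-built and transcribed, covering one subunit of a heterodimeric triplet polymerase ribozyme. Frozen incubation at −7 °C followed annealing with a biotinylated primer, partner subunit and triplets, and extended constructs were then gel-excised, streptavidin-captured and taken through RT-PCR. Fitness is the logarithm of genotype enrichment over wild-type enrichment, from inverse-variance-weighted replicate averages of Illumina-sequenced inputs and outputs. […] only genotypes with ≥10 input reads and ≥1 read per output were kept.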

Variant | polymerase ribozyme fitness (log ratio)
G11U C93U A115G | -2.88
G11C C18G A23C G48A G88U C93G U144A | ≤ -4.2
G11C C14G C87A A121C U144A | ≤ -4.2
A12C A98G | -0.18
A12G A20U A23C G141U | ≤ -4.2
G11C U31C G59C C76A G84U U104A A107U | ≤ -4.2
A12C U53A G58U C99G U151C | ≤ -4.2
G11U C18G G58C A60C U78C G83A C96U A115C | ≤ -4.2
A12C A16G A41C A121U | -1.69
A12C G81A G92C C99U G124C G133U | ≤ -4.2
A12C U33A G48C U127G G140C | ≤ -4.2
A12C U13G C18G A21G U101A A110U A120U G136C G140U G152U | ≤ -4.2
G11C U15G A20C A28U C85U G140U U145G | ≤ -4.2
G11U A17C A37U A121U A122U | -3.25
A12G U15C A37G U44A U56A C69U C87U | ≤ -4.2
G11C A47U C85U | -2.5
A12G C35U U56C C57G G58U A60G | -0.194
A12G A19C A20G A22C A28G A30G C57A G59A G84A U101G A115U G136U | ≤ -4.2
G11U C87G | -4.09
A12G C85U C118G C125A | -0.473
A12C A19C A122G U146C | -1.62

Variant | polymerase ribozyme fitness (log ratio)
A12G A37U U55G A113C | ≤ -4.2
G11C C114U U139A | ≤ -4.2
A12G G59C | 0.244
A12C C85U C116A A122G G143U | ≤ -4.2
G11U U90A A119U G133C | ≤ -4.2
G11U U55G A60G G67A C93U | ≤ -4.2
G11C C75U | -1.85
A12G A40U A60C G88U G117C | ≤ -4.2
A12G A23C A47C A60G C93U | ≤ -4.2
A12C A21G C51U G83U | -2.15
G11C A28G U56A U77A C87A A122U | ≤ -4.2
A12C A30U A37U A49U C57U U90G A91U A107U | ≤ -4.2
A12C A22G C32G C51G A60U U77A G81C G128A U148C | ≤ -4.2
G11C C116G | -0.794
A12C C35A C85G C103G C118G G141C | ≤ -4.2
G11U A19U C32U U33C G74A C85U G141U C149A | ≤ -4.2
A12G A26G G94C C95A A137G | -4
A12G C96A U134C A138G G141C | -3.97
A12G A21U C27A G48C A49C C51A G84A C129A | ≤ -4.2
A12G A91G A106G | -2.04
A12G C85A C118A G136U | -3.83

Variant | polymerase ribozyme fitness (log ratio)
G11C A40C G83U A119G | -2.65
G11C A41C A66C C85U A122U G140U | ≤ -4.2
G11C A91U | -4.11
A12G A60G C93U | -0.294
A12G C14G C18U U31A U56G U101A | -2.32
G11U U53A G65A A73U G83C U144A | ≤ -4.2
G11C A37C U55G C93A C99G G124U C149U | ≤ -4.2
A12G C14G A22C A37C G88C G143C | ≤ -4.2
A12G A20G A23U A89G C96U U111C G124C U130G G133C G140A | ≤ -4.2
A12G A16G U44G G81C G84A C95U U144A U146C | ≤ -4.2
A12G G80A C118U A119C A120G G143U | -3.12
A12C A41C C54U G94U A121G G140C | ≤ -4.2
A12G C35A C95U A106U | ≤ -4.2
G11U U44A G92C | ≤ -4.2
A12G A24U G34A G92U G126C | -1.83
G11U G34A G50A C85U U90C G143A | ≤ -4.2
A12C G58C G94C | -1.43
A12C C38U C54U C76U U77G G84A U127A A138U | ≤ -4.2
A12G C14U | -0.925
A12C A17G U31G U44A C93U C99U A122C U134A A142G | ≤ -4.2
A12G C57U U61A G68A G70C C87U C96A G133A U148A | ≤ -4.2

Variant | polymerase ribozyme fitness (log ratio)
A12G G92C G133U | -3.59
G11U C54U U77G G92U U145A A147U | ≤ -4.2
A12G C14U G50A U53A C95U C99A C116U A150U | -4.15
G11C A29G A40U C76U C87U | ≤ -4.2
A12G U13G C38A A41U C95A U102C A137G | ≤ -4.2
A12C C18G A40U C123U G136U | -3.09
G11U C32U C93G A107G | ≤ -4.2
A12C C93U | -2.17
G11U C14G G34U G84U C125G C149G | ≤ -4.2
G11C A20U G86C C99G G136C U145G A147C | ≤ -4.2
G11U A40U G42C G84C G100U A107U U134G | ≤ -4.2
A12G C57G G59A C96U U127G | -3.86
A12G A23U C85G A150G | ≤ -4.2
A12G G141C | -0.0174
A12G A20G A60G | -0.113
G11A G34C A47G C103G A121U | ≤ -4.2
G11C C14U A37C C93U | ≤ -4.2
A12C C87U C114U U139G | -3.08
G11C G59A A73G U82G | -2.2
G11C C63U C79U G86C | ≤ -4.2
A12C G62A A122U | -0.923
